Measured values reported in article PMC11063343.

Target: SARS-CoV-2 S1 spike domain
Experiment: SPR
Conditions: 2.5 µM SARS-CoV-2-S1; parent: est. 450; read off a plot

Substance “cellugyrin N-Term peptide Y6A; K10A; F15A” has a response of 45 RU.
